The series has as its target T1, SERF2 (Homo sapiens) (UniProt P84101).
T1 sequence: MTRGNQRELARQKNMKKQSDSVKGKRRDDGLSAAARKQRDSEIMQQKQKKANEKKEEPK
Briefly: fluorescence polarization. Particulars: FP: 20 mM NaPi pH 7.4, 100 mM KCl, 25 C (20-100 nM FAM-RNA or 200 nM AF488-SERF2); NMR: same buffer, 4 C.

The text below walks through data of article doi:10.1101/2023.10.09.561572.

The substance TERRA60 rG4 yielded a Kd of under 1000 nM. The value for polyG RNA was under 1000 nM.

As usually defined, the Kd is the concentration at which binding is half-saturated. Low readings indicate a tighter complex, high ones a looser complex.
